The values that follow come from US20150190490A1 (ONCOTHERAPY SCIENCE, published 2015).

The target in assay [1] is T1, HLA-DR4 (DRB1*04:05) (human).
T1 construct: whole, on cells; MHC class II molecule on mouse L-cell transfectants (L-DR4), donor PBMCs or DCs; also called L-DR4; L-DR0405
The assay can be described thus: concluded from IFN-gamma ELISPOT restriction analysis (peptide-pulsed L-DR4 cells, blocking mAbs). How it is done: (§1) On day 5, the DCs were cultured in the presence of the recombinant CDCA1 (50 micro g/ml) and OK432. The protein-loaded mature DCs were harvested on day 7, washed and used as stimulator in IFN-gamma ELISPOT assays. To determine restriction HLA molecules involved in antigen presentation, blocking of antigen-induced IFN-gamma production was investigated by adding anti-HLA-DR mAb (L243, Biolegend), anti-HLA-DP mAb, (B7/21, abcam), anti-human HLA-DQ mAb (SPV-L3, abcam), or anti-HLA class I mAb, (W6/32, abcam). All mAbs were used at a final concentration of 5 micro g/ml. All assessments of IFN-gamma ELISPOT assays were carried out in duplicate or triplicate, and results corresponded to mean values.
(§2) The immune responses of T-cells to PBMC, L-cells, and murine BM-DC pulsed with peptides (10 micro g/mL) or CDCA1 proteins-loaded human DCs (50 micro g/mL) were assessed by IFN-gamma ELISPOT assays (BD Biosciences, San Jose, Calif.) according to manufacturer's instructions and described previously (Zarour H M et al., Cancer Res 2000; 60:4946-52.). In briefly, peptide-pulsed PBMCs (3×10⁴/well), L-cells (5×10⁴/well), T2 cells (2×10⁴/well), C1R-A24 cells (2×10⁴/well), bone marrow-derived DCs (BM-DCs, 2×10⁴/well), or protein-loaded DCs (5×10³/well) were seeded in triplicate or duplicate in the ELISPOT plates as APCs or target cells. […] After incubation for 18 h, spot numbers were counted. […]

Assay [2] concerns the target T2, HLA-DR15 (DRB1*15:02) (human).
T2 construct: whole, on cells; MHC class II molecule on mouse L-cell transfectants (L-DR15) or donor PBMCs; also called L-DR15
The assay can be described thus: concluded from IFN-gamma ELISPOT restriction analysis (peptide-pulsed L-DR15 cells, blocking mAbs). How it is done: as §1, §2

B1: CDCA1 (55-78) long peptide (peptide)
peptide: IVYGIRLEHFYMMPVNSEVMYPHL
notes: Synthetic long peptide (purity >90%), pulsed onto antigen presenting cells; also called CDCA1 (55-78) LP; CDCA1 (55-78)-LP
Take B1: the binding result in assay [1] and in assay [2] was “binds” each time.
